Reference: paper PMC2910593 (PLoS Biology, 2010)
“And” between values parts separate entries of the source, which are not always exact repeats. Equal values may be shown once. Values belong to the molecule of their own block, whether it stands above or below them.

Key:
[1] = molecular target: CaMKIIα/Ca^2+/CaM complex (human) (UniProt Q9UQM7); assay: AUC; sedimentation velocity of the CaMKII/Ca2+/CaM complexes, 4°C, 10 mM HEPES pH 7.5, 300 mM NaCl, 1 mM CaCl2, 5 mM DTT; heterodimer to heterotetramer, KD estimated from the proportions of the peaks
[2] = molecular target: CaMKIIγ oligomerization domain (human); assay: crystal structure; isolated oligomerization domains of human CaMKIIγ (2.7 Å) and CaMKIIδ (2.8 Å)
[3] = molecular target: CaMKIIδ/Ca^2+/CaM complex (human) (UniProt Q13557); assay: AUC; sedimentation velocity of the CaMKII/Ca2+/CaM complexes, 4°C, 10 mM HEPES pH 7.5, 300 mM NaCl, 1 mM CaCl2, 5 mM DTT; heterodimer to heterotetramer, KD estimated from the proportions of the peaks
[4] = molecular target: CaMKI catalytic domain (human) (UniProt Q8IU85); assay: ITC; VP-ITC, 10°C, 20 mM HEPES pH 7.5, 150 mM NaCl, 5 mM DTT, 1 mM CaCl2; Ca2+/CaM titrated into the kinase domains, or the peptide titrated into Ca2+/CaM; single binding site model
[5] = molecular target: CaMKIIα catalytic domain (human) (UniProt Q9UQM7); assay: as above
[6] = molecular target: CaMKIIβ catalytic domain (human) (UniProt Q13554); assay: as above
[7] = molecular target: CaMKIIγ catalytic and regulatory domain (human) (UniProt Q13555); assay: as above
[8] = molecular target: CaMKIV catalytic domain (human) (UniProt Q16566); assay: as above
[9] = molecular target: the molecule itself; assay: crystal structure; isolated oligomerization domains of human CaMKIIγ (2.7 Å) and CaMKIIδ (2.8 Å)

Chain of CaMKI catalytic domain (human) (Q8IU85 1-333): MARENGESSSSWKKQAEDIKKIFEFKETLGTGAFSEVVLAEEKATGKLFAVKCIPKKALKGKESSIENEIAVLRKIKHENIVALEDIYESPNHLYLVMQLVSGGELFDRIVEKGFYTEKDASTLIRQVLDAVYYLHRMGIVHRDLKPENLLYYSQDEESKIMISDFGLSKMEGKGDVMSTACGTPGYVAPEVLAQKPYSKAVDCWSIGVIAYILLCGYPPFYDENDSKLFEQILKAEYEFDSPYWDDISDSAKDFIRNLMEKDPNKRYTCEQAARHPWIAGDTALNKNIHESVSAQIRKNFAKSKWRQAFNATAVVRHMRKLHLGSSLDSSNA
Chain of CaMKIIγ catalytic and regulatory domain (human) (Q13555 5-317): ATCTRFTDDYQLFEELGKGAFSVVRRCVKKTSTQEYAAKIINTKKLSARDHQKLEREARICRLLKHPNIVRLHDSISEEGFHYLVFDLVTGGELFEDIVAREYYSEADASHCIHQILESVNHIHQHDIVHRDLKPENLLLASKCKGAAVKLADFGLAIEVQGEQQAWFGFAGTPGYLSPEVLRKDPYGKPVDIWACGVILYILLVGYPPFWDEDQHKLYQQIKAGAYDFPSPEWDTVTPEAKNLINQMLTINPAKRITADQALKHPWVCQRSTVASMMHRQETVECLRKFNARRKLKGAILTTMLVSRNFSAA
Chain of CaMKIV catalytic domain (human) (Q16566 15-340): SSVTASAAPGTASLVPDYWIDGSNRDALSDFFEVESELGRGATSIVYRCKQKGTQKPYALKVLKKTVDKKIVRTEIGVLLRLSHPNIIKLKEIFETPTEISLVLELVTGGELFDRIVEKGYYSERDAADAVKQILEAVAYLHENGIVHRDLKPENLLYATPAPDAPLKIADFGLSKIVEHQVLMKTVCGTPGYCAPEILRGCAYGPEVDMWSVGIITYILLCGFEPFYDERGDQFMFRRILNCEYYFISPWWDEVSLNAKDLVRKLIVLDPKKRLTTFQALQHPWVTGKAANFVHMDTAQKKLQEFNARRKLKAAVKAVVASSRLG
Chain of CaMKIIβ catalytic domain (human) (Q13554 11-302): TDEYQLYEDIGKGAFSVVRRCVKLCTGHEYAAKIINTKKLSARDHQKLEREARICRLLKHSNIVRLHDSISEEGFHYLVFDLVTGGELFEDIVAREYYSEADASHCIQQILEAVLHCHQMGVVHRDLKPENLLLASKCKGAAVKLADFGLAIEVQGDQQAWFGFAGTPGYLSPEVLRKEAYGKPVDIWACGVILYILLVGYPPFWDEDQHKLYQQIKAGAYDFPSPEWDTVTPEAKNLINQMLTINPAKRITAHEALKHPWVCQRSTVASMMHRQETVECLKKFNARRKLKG

- Kd [1]: 120 µM
Molecule: CaMKIIα/Ca^2+/CaM complex (from UniProt Q9UQM7 13-301; P0DP23 1-149)

- stoichiometry N [2]: 12
Molecule: CaMKIIγ oligomerization domain (domain or fragment)

Continued, molecule first:

Molecule: CaMKIIδ/Ca^2+/CaM complex (from UniProt Q13557 11-335; P0DP23 1-149)
- Kd [3]: 50 µM

Molecule: calmodulin (Ca^2+/CaM) (from UniProt P0DP23 1-149) (natural protein)
- dH [4]: -5.8 kcal/mol and -5.1 kcal/mol
- stoichiometry N [4]: 0.93
- dH [5]: 12.1 kcal/mol
- stoichiometry N [5]: 0.863
- dH [6]: 8.9 kcal/mol
- stoichiometry N [6]: 0.922
- dH [7]: 8.6 kcal/mol
- stoichiometry N [7]: 0.981
- dH [8]: -10.2 kcal/mol
- stoichiometry N [8]: 0.83

B1: CaMKIIδ oligomerization domain (domain or fragment, human, UniProt Q13557 334-475, looked up)
chain: SNTTIEDEDVKARKQEIIKVTEQLIEAINNGDFEAYTKICDPGLTAFEPEALGNLVEGMDFHRFYFENALSKSNKPIHTIILNPHVHLVGDDAACIAYIRLTQYMDGSGMPKTMQSEETRVWHRRDGKWQNVHFHRSGSPTV
- stoichiometry N [9]: 14
